# Test results published in patent publication US20220001020A1.
# Biological target: CD123 (human) (UniProt P26951)
# Experiment: cell-based or functional assay
# UniProt P26951, sequence (P26951 19-378): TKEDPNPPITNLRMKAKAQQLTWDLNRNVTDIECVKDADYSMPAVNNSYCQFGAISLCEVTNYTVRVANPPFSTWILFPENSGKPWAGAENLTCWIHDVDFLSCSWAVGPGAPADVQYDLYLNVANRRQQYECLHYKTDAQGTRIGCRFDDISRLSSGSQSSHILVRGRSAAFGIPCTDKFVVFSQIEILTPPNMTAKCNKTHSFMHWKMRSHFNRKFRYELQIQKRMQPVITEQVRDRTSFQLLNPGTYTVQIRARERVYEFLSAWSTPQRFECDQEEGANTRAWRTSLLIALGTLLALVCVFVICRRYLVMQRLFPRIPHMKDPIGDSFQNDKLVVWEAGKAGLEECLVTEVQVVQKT
substance,measurement,value
diphtheria toxin-human interleukin-3 conjugate (DT-IL3),"IC50, cell viability assay",4.8 nM
